Experimental findings from PMC5299624 (The Journal of General Physiology, 2017) are described below.

In this test the target is calmodulin (CaM) (UniProt P0DP23 1-149). Nature of the test: ITC. (In general: In ITC the heat of successive injections is recorded.)

B1: human NaV1.6 C-terminal domain (CTD), amino acids 1769-1926, wild type (domain or fragment)
chain: FSVATEESADPLSEDDFETFYEIWEKFDPDATQFIEYCKLADFADALEHPLRVPKPNTIELIAMDLPMVSGDRIHCLDILFAFTKRVLGDSGELDILRQQMEERFVASNPSKVSYEPITTTLRRKQEEVSAVVLQRAYRGHLARRGFICKKTTSNKLE
Broadly, the Kd is a measure of binding affinity in units of concentration. Read a high Kd as weaker binding. With B1, the equilibrium dissociation constant (Kd) stood at 276 nM.

B2: human NaV1.2 CTD (1777-1937) H1853R (domain or fragment)
chain: ENFSVATEESAEPLSEDDFEMFYEVWEKFDPDATQFIEFAKLSDFADALDPPLLIAKPNKVQLIAMDLPMVSGDRIRCLDILFAFTKRVLGESGEMDALRIQMEERFMASNPSKVSYEPITTTLKRKQEEVSAIIIQRAYRRYLLKQKVKKVSSIYKKDKG
The molecule B2 came in with an equilibrium dissociation constant (Kd) of 172 nM.

B3: human NaV1.2 CTD (1777-1937) R1918H (domain or fragment)
chain: ENFSVATEESAEPLSEDDFEMFYEVWEKFDPDATQFIEFAKLSDFADALDPPLLIAKPNKVQLIAMDLPMVSGDRIHCLDILFAFTKRVLGESGEMDALRIQMEERFMASNPSKVSYEPITTTLKRKQEEVSAIIIQRAYRHYLLKQKVKKVSSIYKKDKG
Consider B3, for which the affinity, expressed as Kd, was 112 nM.
